The text below walks through data of patent publication US20160305947A1 (Merck Sharp & Dohme, published 2016).

This assay concerns the target T1, human PD-L1 (Programmed Cell Death 1 Ligand 1) (human, UniProt Q9NZQ7 19-290).
T1 construct: whole, on cells; The target is the endogenous protein in FFPE tumor tissue after antigen retrieval, not a recombinant construct; also called B7-H1; PDCD1L1
In words: IHC staining of FFPE human melanoma sections (chromogenic DAB and TSA fluorescence). How it is done: After deparaffinization, antigens were retrieved by immersing the slides into Flex TRS (high pH) and allowing the temperature inside the PT Link to reach 97° C. for 20 minutes. Once this time elapsed, the chamber temperature was cooled to 75° C. Slides were removed from the PT Link and cooled to room temperature in Flex wash buffer.
Single parameter chromogenic immunohistochemical staining was performed using a mouse monoclonal anti-PD-L1 antibody (clone 22C3) and the brown DAB chromogen (FIG. 1, left column) Multiparametric fluorescence immunohistochemistry was performed using the protocol detailed in Example 1. In brief, formalin-fixed paraffin-embedded sections were stained using an anti-PD1 antibody (polyclonal goat anti-hPD-1, green) and an anti-PD-L1 antibody (clone 22C3, red). Representative patterns of PD-1 and PD-L1 are depicted in the images in the right-hand column. […] PD-L1 can be identified as being either (1) spatially apart from PD-1+ T cells (A, right); (2) associated with a minimal PD-1+ infiltrate (B, right); (3) expressed in the absence of concomitant PD-1+ T cells (C, right); or (4) strongly expressed in tight spatial proximity to PD-1+CD8 T cells (D, right).

T1 sequence (Q9NZQ7 19-290): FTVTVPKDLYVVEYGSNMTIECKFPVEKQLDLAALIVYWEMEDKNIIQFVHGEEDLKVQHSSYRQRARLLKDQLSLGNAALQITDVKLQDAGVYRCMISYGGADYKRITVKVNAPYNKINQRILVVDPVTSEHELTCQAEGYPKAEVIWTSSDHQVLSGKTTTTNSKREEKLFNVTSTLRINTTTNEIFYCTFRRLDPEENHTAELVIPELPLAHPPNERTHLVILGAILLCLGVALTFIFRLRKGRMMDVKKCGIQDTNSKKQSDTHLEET

B1: Mouse anti-human PD-L1 mAb (Clone 22C3) (antibody, mouse IgG1, kappa, V domains shown)
VH: QVHLQQSGAELAKPGASVKMSCKASGYTFTSYWIHWIKQRPGQGLEWIGYINPSSGYHEYNQKFIDKATLTADRSSSTAYMHLTSLTSEDSAVYYCARSGWLIHGDYYFDFWGQGTTLTVSS
VL: DIVMSQSPSSLAVSAGEKVTMTCKSSQSLLHTSTRKNYLAWYQQKPGQSPKLLIYWASTRESGVPDRFTGSGSGTDFTLTISSVQAEDLAVYYCKQSYDVVTFGAGTKLELKR
notes: Mouse IgG1, made in house, used at 2 ug/mL as the primary antibody in IHC; also called antibody 22C3; mouse monoclonal anti-PD-L1 antibody (clone 22C3)
With B1, the binding result was “binds”.
